In article PMC4551919 (Nucleic Acids Research, 2015):

B1: UPF1, full length (natural protein)
chain: MSVEAYGPSSQTLTFLDTEEAELLGADTQGSEFEFTDFTLPSQTQTPPGGPGGPGGGGAGGPGGAGAGAAAGQLDAQVGPEGILQNGAVDDSVAKTSQLLAELNFEEDEEDTYYTKDLPIHACSYCGIHDPACVVYCNTSKKWFCNGRGNTSGSHIVNHLVRAKCKEVTLHKDGPLGETVLECYNCGCRNVFLLGFIPAKADSVVVLLCRQPCASQSSLKDINWDSSQWQPLIQDRCFLSWLVKIPSEQEQLRARQITAQQINKLEELWKENPSATLEDLEKPGVDEEPQHVLLRYEDAYQYQNIFGPLVKLEADYDKKLKESQTQDNITVRWDLGLNKKRIAYFTLPKTDSGNEDLVIIWLRDMRLMQGDEICLRYKGDLAPLWKGIGHVIKVPDNYGDEIAIELRSSVGAPVEVTHNFQVDFVWKSTSFDRMQSALKTFAVDETSVSGYIYHKLLGHEVEDVIIKCQLPKRFTAQGLPDLNHSQVYAVKTVLQRPLSLIQGPPGTGKTVTSATIVYHLARQGNGPVLVCAPSNIAVDQLTEKIHQTGLKVVRLCAKSREAIDSPVSFLALHNQIRNMDSMPELQKLQQLKDETGELSSADEKRYRALKRTAERELLMNADVICCTCVGAGDPRLAKMQFRSILIDESTQATEPECMVPVVLGAKQLILVGDHCQLGPVVMCKKAAKAGLSQSLFERLVVLGIRPIRLQVQYRMHPALSAFPSNIFYEGSLQNGVTAADRVKKGFDFQWPQPDKPMFFYVTQGQEEIASSGTSYLNRTEAANVEKITTKLLKAGAKPDQIGIITPYEGQRSYLVQYMQFSGSLHTKLYQEVEIASVDAFQGREKDFIILSCVRANEHQGIGFLNDPRRLNVALTRARYGVIIVGNPKALSKQPLWNHLLNYYKEQKVLVEGPLNNLRESLMQFSKPRKLVNTINPGARFMTTAMYDAREAIIPGSVYDRSSQGRPSSMYFQTHDQIGMISAGPSHVAAMNIPIPFNLVMPPMPPPGYFGQANGPAAGRGTPKGKTGRGGRQKNRFGLPGPSQTNLPNSQASQDVASQPFSQGALTQGYISMSQPSQMSQPGLSQPELSQDSYLGDEFKSQIDVALSQDSTYQGERAYQHGGVTGLSQY
B2: SMG-9 (natural protein)
chain: MSESGHSQPGLYGIERRRRWKEPGSGGPQNLSGPGGRERDYIAPWERERRDASEETSTSVMQKTPIILSKPPAERSKQPPPPTAPAAPPAPAPLEKPIVLMKPREEGKGPVAVTGASTPEGTAPPPPAAPAPPKGEKEGQRPTQPVYQIQNRGMGTAAPAAMDPVVGQAKLLPPERMKHSIKLVDDQMNWCDSAIEYLLDQTDVLVVGVLGLQGTGKSMVMSLLSANTPEEDQRTYVFRAQSAEMKERGGNQTSGIDFFITQERIVFLDTQPILSPSILDHLINNDRKLPPEYNLPHTYVEMQSLQIAAFLFTVCHVVIVVQDWFTDLSLYRFLQTAEMVKPSTPSPSHESSSSSGSDEGTEYYPHLVFLQNKARREDFCPRKLRQMHLMIDQLMAHSHLRYKGTLSMLQCNVFPGLPPDFLDSEVNLFLVPFMDSEAESENPPRAGPGSSPLFSLLPGYRGHPSFQSLVSKLRSQVMSMARPQLSHTILTEKNWFHYAARIWDGVRKSSALAEYSRLLA
B3: SMG-8 (natural protein)
chain: MAGPVSLRDLLMGASAWMGSESPGGSPTEGGGSAAGGPEPPWREDEICVVGIFGKTALRLNSEKFSLVNTVCDRQVFPLFRHQDPGDPGPGIRTEAGAVGEAGGAEDPGAAAGGSVRGSGAVAEGNRTEAGSQDYSLLQAYYSQESKVLYLLLTSICDNSQLLRACRALQSGEAGGGLSLPHAEAHEFWKHQEKLQCLSLLYLFSVCHILLLVHPTCSFDITYDRVFRALDGLRQKVLPLLKTAIKDCPVGKDWKLNCRPCPPRLLFLFQLNGALKVEPPRNQDPAHPDKPKKHSPKRRLQHALEDQIYRIFRKSRVLTNQSINCLFTVPANQAFVYIVPGSQEEDPVGMLLDQLRSHCTVKDPESLLVPAPLSGPRRYQVMRQHSRQQLSFHIDSSSSSSSGQLVDFTLREFLWQHVELVLSKKGFDDSVGRNPQPSHFELPTYQKWISAASKLYEVAIDGKEEDLGSPTGELTSKILSSIKVLEGFLDIDTKFSENRCQKALPMAHSAYQSNLPHNYTMTVHKNQLAQALRVYSQHARGPAFHKYAMQLHEDCYKFWSNGHQLCEERSLTDQHCVHKFHSLPKSGEKPEADRNPPVLYHNSRARSTGACNCGRKQAPRDDPFDIKAANYDFYQLLEEKCCGKLDHINFPVFEPSTPDPAPAKNESSPAPPDSDADKLKEKEPQTQGESTSLSLALSLGQSTDSLGTYPADPQAGGDNPEVHGQVEVKTEKRPNFVDRQASTVEYLPGMLHSNCPKGLLPKFSSWSLVKLGPAKSYNFHTGLDQQGFIPGTNYLMPWDIVIRTRAEDEGDLDTNSWPAPNKAIPGKRSAVVMGRGRRRDDIARAFVGFEYEDSRGRRFMCSGPDKVMKVMGSGPKESALKALNSDMPLYILSSSQGRGLKPHYAQLMRLFVVVPDAPLQIILMPQVQPGPPPCPVFYPEKQEITLPPDGLWVLRFPYAYVTERGPCFPPKENVQLMSYKVLRGVLKAVTQ
B4: UPF2 (121–1227) (domain or fragment)
chain: MKEKEESIQLHQEAWERHHLRKELRSKNQNAPDSRPEENFFSRLDSSLKKNTAFVKKLKTITEQQRDSLSHDFNGLNLSKYIAEAVASIVEAKLKISDVNCAVHLCSLFHQRYADFAPSLLQVWKKHFEARKEEKTPNITKLRTDLRFIAELTIVGIFTDKEGLSLIYEQLKNIINADRESHTHVSVVISFCRHCGDDIAGLVPRKVKSAAEKFNLSFPPSEIISPEKQQPFQNLLKEYFTSLTKHLKRDHRELQNTERQNRRILHSKGELSEDRHKQYEEFAMSYQKLLANSQSLADLLDENMPDLPQDKPTPEEHGPGIDIFTPGKPGEYDLEGGIWEDEDARNFYENLIDLKAFVPAILFKDNEKSCQNKESNKDDTKEAKESKENKEVSSPDDLELELENLEINDDTLELEGGDEAEDLTKKLLDEQEQEDEEASTGSHLKLIVDAFLQQLPNCVNRDLIDKAAMDFCMNMNTKANRKKLVRALFIVPRQRLDLLPFYARLVATLHPCMSDVAEDLCSMLRGDFRFHVRKKDQINIETKNKTVRFIGELTKFKMFTKNDTLHCLKMLLSDFSHHHIEMACTLLETCGRFLFRSPESHLRTSVLLEQMMRKKQAMHLDARYVTMVENAYYYCNPPPAEKTVKKKRPPLQEYVRKLLYKDLSKVTTEKVLRQMRKLPWQDQEVKDYVICCMINIWNVKYNSIHCVANLLAGLVLYQEDVGIHVVDGVLEDIRLGMEVNQPKFNQRRISSAKFLGELYNYRMVESAVIFRTLYSFTSFGVNPDGSPSSLDPPEHLFRIRLVCTILDTCGQYFDRGSSKRKLDCFLVYFQRYVWWKKSLEVWTKDHPFPIDIDYMISDTLELLRPKIKLCNSLEESIRQVQDLEREFLIKLGLVNDKDSKDSMTEGENLEEDEEEEEGGAETEEQSGNESEVNEPEEEEGSDNDDDEGEEEEEENTDYLTDSNKENETDEENTEVMIKGGGLKHVPCVEDEDFIQALDKMMLENLQQRSGESVKVHQLDVAIPLHLKSQLRKGPPLGGGEGEAESADTMPFVMLTRKGNKQQFKILNVPMSSQLAANHWNQQQAEQEERMRMKKLTLDINERQEQED

Experiments:
SMG-1–8–9 complex = SMG-1–8–9 complex (human | , UniProt Q96Q15;Q8ND04;Q9H0W8); assay: negative-stain electron microscopy
[1] = target: T1, SMG-1, full length, SBP-tagged (human, UniProt Q96Q15 1-3661); assay: cryo-EM structure
UPF1, full length [2] = target: B1; assay: cross-linking
SMG-8 = target: B3; assay: cross-linking
[3] = target: T1, SMG-1, full length, SBP-tagged; assay: cross-linking
UPF1, full length [4] = target: B1; assay: SEC

T1 sequence (Q96Q15 whole entry): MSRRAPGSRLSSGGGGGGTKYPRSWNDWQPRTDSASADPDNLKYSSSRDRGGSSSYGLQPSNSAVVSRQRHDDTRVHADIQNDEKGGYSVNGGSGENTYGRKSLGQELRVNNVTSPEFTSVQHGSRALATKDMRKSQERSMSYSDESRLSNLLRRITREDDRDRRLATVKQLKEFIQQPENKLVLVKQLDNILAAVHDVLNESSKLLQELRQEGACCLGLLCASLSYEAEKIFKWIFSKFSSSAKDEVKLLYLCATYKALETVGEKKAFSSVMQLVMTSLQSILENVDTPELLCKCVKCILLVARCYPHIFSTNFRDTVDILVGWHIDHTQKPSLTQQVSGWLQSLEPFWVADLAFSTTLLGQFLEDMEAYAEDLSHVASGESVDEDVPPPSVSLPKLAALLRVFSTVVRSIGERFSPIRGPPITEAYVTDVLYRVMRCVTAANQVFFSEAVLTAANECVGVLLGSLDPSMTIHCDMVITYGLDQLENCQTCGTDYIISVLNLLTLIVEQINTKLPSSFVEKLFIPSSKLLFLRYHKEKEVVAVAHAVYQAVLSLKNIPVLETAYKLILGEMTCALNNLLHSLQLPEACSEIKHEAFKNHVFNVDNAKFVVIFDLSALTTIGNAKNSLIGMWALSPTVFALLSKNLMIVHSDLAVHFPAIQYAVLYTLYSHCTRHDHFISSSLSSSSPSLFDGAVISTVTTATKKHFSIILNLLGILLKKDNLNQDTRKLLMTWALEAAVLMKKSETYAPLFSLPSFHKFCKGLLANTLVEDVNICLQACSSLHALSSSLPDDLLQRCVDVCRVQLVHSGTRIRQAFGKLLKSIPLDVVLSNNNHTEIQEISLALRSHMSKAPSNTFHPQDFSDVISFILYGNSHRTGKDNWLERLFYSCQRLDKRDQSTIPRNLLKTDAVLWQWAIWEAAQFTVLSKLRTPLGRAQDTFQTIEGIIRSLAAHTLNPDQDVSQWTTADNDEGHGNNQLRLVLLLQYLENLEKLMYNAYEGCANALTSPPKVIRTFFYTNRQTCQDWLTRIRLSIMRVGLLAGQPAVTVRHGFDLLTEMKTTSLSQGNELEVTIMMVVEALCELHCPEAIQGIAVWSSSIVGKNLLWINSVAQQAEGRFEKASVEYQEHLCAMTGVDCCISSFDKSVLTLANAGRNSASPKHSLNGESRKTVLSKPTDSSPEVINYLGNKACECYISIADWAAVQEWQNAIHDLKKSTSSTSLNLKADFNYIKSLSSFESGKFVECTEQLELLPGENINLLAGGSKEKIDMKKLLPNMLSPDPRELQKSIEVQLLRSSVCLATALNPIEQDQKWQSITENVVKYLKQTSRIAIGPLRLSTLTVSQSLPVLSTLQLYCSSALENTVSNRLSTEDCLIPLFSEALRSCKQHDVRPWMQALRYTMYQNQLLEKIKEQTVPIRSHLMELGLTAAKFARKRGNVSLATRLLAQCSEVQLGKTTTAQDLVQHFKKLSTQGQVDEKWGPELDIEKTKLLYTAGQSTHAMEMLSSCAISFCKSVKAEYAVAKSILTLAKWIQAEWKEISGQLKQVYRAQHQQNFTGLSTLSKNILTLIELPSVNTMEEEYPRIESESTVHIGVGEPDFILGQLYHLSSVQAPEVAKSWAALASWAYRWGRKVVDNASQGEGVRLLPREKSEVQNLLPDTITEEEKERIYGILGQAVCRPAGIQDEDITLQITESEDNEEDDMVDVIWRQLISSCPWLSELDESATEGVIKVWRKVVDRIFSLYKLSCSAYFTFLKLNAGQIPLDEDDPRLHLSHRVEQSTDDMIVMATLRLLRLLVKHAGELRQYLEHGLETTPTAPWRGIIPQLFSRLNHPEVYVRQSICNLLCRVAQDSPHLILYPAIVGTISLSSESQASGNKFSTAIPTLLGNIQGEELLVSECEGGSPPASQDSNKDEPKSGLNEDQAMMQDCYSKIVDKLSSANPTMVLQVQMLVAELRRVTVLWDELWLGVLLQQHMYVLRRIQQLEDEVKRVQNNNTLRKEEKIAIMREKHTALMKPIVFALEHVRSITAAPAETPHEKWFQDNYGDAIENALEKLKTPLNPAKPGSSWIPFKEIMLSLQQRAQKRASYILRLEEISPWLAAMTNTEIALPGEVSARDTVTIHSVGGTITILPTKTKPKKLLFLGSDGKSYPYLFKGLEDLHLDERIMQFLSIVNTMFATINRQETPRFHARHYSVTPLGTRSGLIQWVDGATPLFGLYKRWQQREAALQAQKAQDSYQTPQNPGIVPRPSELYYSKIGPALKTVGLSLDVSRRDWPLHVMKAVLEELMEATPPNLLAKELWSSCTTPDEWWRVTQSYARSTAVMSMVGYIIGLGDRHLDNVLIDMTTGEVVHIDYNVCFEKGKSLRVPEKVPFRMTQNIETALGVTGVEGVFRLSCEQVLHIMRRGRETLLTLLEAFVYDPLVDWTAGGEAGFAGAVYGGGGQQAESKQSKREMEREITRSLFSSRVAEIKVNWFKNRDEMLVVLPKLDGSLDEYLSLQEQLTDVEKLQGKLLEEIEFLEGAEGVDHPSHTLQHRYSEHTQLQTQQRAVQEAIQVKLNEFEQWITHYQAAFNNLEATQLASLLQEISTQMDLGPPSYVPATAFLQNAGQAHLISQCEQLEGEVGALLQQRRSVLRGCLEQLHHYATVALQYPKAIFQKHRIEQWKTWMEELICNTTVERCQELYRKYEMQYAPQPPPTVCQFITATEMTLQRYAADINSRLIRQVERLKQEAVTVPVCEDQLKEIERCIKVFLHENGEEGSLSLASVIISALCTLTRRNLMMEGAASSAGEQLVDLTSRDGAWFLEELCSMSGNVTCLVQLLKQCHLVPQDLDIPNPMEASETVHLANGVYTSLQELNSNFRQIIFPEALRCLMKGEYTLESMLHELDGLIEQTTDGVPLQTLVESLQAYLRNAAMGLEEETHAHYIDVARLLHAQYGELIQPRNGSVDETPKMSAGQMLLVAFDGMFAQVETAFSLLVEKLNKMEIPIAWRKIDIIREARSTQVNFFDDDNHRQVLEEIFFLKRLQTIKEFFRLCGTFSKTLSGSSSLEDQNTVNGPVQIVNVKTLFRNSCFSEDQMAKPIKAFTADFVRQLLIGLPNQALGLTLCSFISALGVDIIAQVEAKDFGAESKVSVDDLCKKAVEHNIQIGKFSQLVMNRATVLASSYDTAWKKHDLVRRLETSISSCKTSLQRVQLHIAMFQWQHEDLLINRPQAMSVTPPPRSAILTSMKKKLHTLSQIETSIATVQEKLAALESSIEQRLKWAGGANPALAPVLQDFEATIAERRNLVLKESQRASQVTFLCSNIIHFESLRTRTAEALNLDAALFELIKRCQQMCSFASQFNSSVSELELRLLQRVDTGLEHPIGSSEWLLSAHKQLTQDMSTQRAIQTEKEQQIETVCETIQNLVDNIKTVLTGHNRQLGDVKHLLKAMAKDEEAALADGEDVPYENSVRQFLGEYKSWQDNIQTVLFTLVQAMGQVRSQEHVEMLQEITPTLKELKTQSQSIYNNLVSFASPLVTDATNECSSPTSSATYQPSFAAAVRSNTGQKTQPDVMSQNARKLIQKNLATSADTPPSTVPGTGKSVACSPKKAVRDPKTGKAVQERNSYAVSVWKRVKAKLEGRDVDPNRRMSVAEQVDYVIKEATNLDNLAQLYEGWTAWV
SMG-1–8–9 complex, sequence (Q96Q15 whole entry, one chain of several): as the sequence (Q96Q15 whole entry) above

B1
binding result (SMG-1–8–9 complex): binds | binding result [1]: binds

B2
binding result (UPF1, full length [2]): binds | binding result (SMG-8): binds | binding result [3]: binds

B3
binding result [3]: binds

B4
binding result (UPF1, full length [4]): binds
